For one molecule, Kd results are on record in US20190160181A1.

The experiment addresses Human cyclized NaPi2b peptide (human). The experiment is described as follows: ELISA on plate-coated human cyclized NaPi2b peptide, one site-specific binding fit. A general note: In an ELISA, binding on a coated surface is turned into a signal by an enzyme label.

B1: XMT-1535 (antibody, V domains shown)
VH: QVQLVQSGAEVVKPGASVKMSCKASGYTFTGYNIHWVKQAPGQGLEWIGAIYPGNGDTSYKQKFRGRATLTADTSTSTVYMELSSLRSEDSAVYYCARGETARATFAYWGQGTLVTVSS
VL: DIQMTQSPSSLSASVGDRVTITCSASQDIGNFLNWYQQKPGKTVKVLIYYTSSLYSGVPSRFSGSGSGTDYTLTISSLQPEDFATYYCQQYSKLPLTFGQGTKLELKR
B1: the Kd (as a rule, a measure of binding affinity in units of concentration) stood at 0.536 nM. That is a sub-nanomolar value.
